How the values were obtained:
[1] = molecular target: T1, FcγRIIa H (human, UniProt P12318 34-217); test: SPR Biacore, captured antibody, FcγR analyte; vs GpH7-A5/GpH7-B3/GpL16-k0 = 100
[2] = molecular target: T1, FcγRIIa H; test: SPR Biacore, captured antibody, FcγR analyte; vs GpH7-B3/GpL16-k0 = 100

T1 sequence (P12318 34-217): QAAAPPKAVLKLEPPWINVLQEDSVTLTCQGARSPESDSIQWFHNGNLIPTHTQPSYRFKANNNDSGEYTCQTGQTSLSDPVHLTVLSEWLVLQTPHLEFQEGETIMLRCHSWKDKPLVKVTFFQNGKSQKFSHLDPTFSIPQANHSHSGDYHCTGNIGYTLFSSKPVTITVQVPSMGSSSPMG

| Binder | He/Con_2aH [1] | Ho/Con_2aH [2] |
| --- | --- | --- |
| GpH7-A5/GpH7-B3 variant A327_09D/GpL16-k0 (antibody, human IgG1, kappa, also called He Ab A327_09D) heavy 1: not shown heavy 2: not shown light: DIVMTQSPLSLPVTPGEPASISCQASESLVHSNRNTYLHWYLQKPGQSPQLLIYKVSNRFSGVPDRFSGSGSGTDFTLKISRVEAEDVGVYYCSQNTHVPPTFGQGTKVEIERTVAAPSVFIFPPSDEQLKSGTASVVCLLNNFYPREAKVQWKVDNALQSGNSQESVTEQDSKDSTYSLSSTLTLSKADYEKHKVYACEVTHQGLSSPVTKSFNRGEC | 105 % of control | – |
| GpH7-B3 variant S324_02A/GpL16-k0 (antibody, human IgG1, kappa, also called Ho Ab S324_02A) heavy: not shown light: DIVMTQSPLSLPVTPGEPASISCQASESLVHSNRNTYLHWYLQKPGQSPQLLIYKVSNRFSGVPDRFSGSGSGTDFTLKISRVEAEDVGVYYCSQNTHVPPTFGQGTKVEIERTVAAPSVFIFPPSDEQLKSGTASVVCLLNNFYPREAKVQWKVDNALQSGNSQESVTEQDSKDSTYSLSSTLTLSKADYEKHKVYACEVTHQGLSSPVTKSFNRGEC | – | 102 % of control |
| GpH7-B3 variant T335_07I/GpL16-k0 (antibody, human IgG1, kappa, also called Ho Ab T335_07I) heavy: not shown light: DIVMTQSPLSLPVTPGEPASISCQASESLVHSNRNTYLHWYLQKPGQSPQLLIYKVSNRFSGVPDRFSGSGSGTDFTLKISRVEAEDVGVYYCSQNTHVPPTFGQGTKVEIERTVAAPSVFIFPPSDEQLKSGTASVVCLLNNFYPREAKVQWKVDNALQSGNSQESVTEQDSKDSTYSLSSTLTLSKADYEKHKVYACEVTHQGLSSPVTKSFNRGEC | – | 105 % of control |
| GpH7-B3 variant L235_04F/GpL16-k0 (antibody, human IgG1, kappa, also called Ho Ab L235_04F) heavy: not shown light: DIVMTQSPLSLPVTPGEPASISCQASESLVHSNRNTYLHWYLQKPGQSPQLLIYKVSNRFSGVPDRFSGSGSGTDFTLKISRVEAEDVGVYYCSQNTHVPPTFGQGTKVEIERTVAAPSVFIFPPSDEQLKSGTASVVCLLNNFYPREAKVQWKVDNALQSGNSQESVTEQDSKDSTYSLSSTLTLSKADYEKHKVYACEVTHQGLSSPVTKSFNRGEC | – | 101 % of control |
| GpH7-B3 variant S337_10E/GpL16-k0 (antibody, human IgG1, kappa, also called Ho Ab S337_10E) heavy: not shown light: DIVMTQSPLSLPVTPGEPASISCQASESLVHSNRNTYLHWYLQKPGQSPQLLIYKVSNRFSGVPDRFSGSGSGTDFTLKISRVEAEDVGVYYCSQNTHVPPTFGQGTKVEIERTVAAPSVFIFPPSDEQLKSGTASVVCLLNNFYPREAKVQWKVDNALQSGNSQESVTEQDSKDSTYSLSSTLTLSKADYEKHKVYACEVTHQGLSSPVTKSFNRGEC | – | 101 % of control |
| GpH7-B3 variant L235_20W/GpL16-k0 (antibody, human IgG1, kappa, also called Ho Ab L235_20W) heavy: not shown light: DIVMTQSPLSLPVTPGEPASISCQASESLVHSNRNTYLHWYLQKPGQSPQLLIYKVSNRFSGVPDRFSGSGSGTDFTLKISRVEAEDVGVYYCSQNTHVPPTFGQGTKVEIERTVAAPSVFIFPPSDEQLKSGTASVVCLLNNFYPREAKVQWKVDNALQSGNSQESVTEQDSKDSTYSLSSTLTLSKADYEKHKVYACEVTHQGLSSPVTKSFNRGEC | – | 112 % of control |
| GpH7-B3 variant T335_10E/GpL16-k0 (antibody, human IgG1, kappa, also called Ho Ab T335_10E) heavy: not shown light: DIVMTQSPLSLPVTPGEPASISCQASESLVHSNRNTYLHWYLQKPGQSPQLLIYKVSNRFSGVPDRFSGSGSGTDFTLKISRVEAEDVGVYYCSQNTHVPPTFGQGTKVEIERTVAAPSVFIFPPSDEQLKSGTASVVCLLNNFYPREAKVQWKVDNALQSGNSQESVTEQDSKDSTYSLSSTLTLSKADYEKHKVYACEVTHQGLSSPVTKSFNRGEC | – | 105 % of control |
| GpH7-B3 variant L328_14T/GpL16-k0 (antibody, human IgG1, kappa, also called Ho Ab L328_14T) heavy: not shown light: DIVMTQSPLSLPVTPGEPASISCQASESLVHSNRNTYLHWYLQKPGQSPQLLIYKVSNRFSGVPDRFSGSGSGTDFTLKISRVEAEDVGVYYCSQNTHVPPTFGQGTKVEIERTVAAPSVFIFPPSDEQLKSGTASVVCLLNNFYPREAKVQWKVDNALQSGNSQESVTEQDSKDSTYSLSSTLTLSKADYEKHKVYACEVTHQGLSSPVTKSFNRGEC | – | 110 % of control |
| GpH7-B3 variant T335_19Q/GpL16-k0 (antibody, human IgG1, kappa, also called Ho Ab T335_19Q) heavy: not shown light: DIVMTQSPLSLPVTPGEPASISCQASESLVHSNRNTYLHWYLQKPGQSPQLLIYKVSNRFSGVPDRFSGSGSGTDFTLKISRVEAEDVGVYYCSQNTHVPPTFGQGTKVEIERTVAAPSVFIFPPSDEQLKSGTASVVCLLNNFYPREAKVQWKVDNALQSGNSQESVTEQDSKDSTYSLSSTLTLSKADYEKHKVYACEVTHQGLSSPVTKSFNRGEC | – | 103 % of control |
| GpH7-B3 variant K334_16H/GpL16-k0 (antibody, human IgG1, kappa, also called Ho Ab K334_16H) heavy: not shown light: DIVMTQSPLSLPVTPGEPASISCQASESLVHSNRNTYLHWYLQKPGQSPQLLIYKVSNRFSGVPDRFSGSGSGTDFTLKISRVEAEDVGVYYCSQNTHVPPTFGQGTKVEIERTVAAPSVFIFPPSDEQLKSGTASVVCLLNNFYPREAKVQWKVDNALQSGNSQESVTEQDSKDSTYSLSSTLTLSKADYEKHKVYACEVTHQGLSSPVTKSFNRGEC | – | 101 % of control |
| GpH7-B3 variant S267_02A/GpL16-k0 (antibody, human IgG1, kappa, also called Ho Ab S267_02A) heavy: not shown light: DIVMTQSPLSLPVTPGEPASISCQASESLVHSNRNTYLHWYLQKPGQSPQLLIYKVSNRFSGVPDRFSGSGSGTDFTLKISRVEAEDVGVYYCSQNTHVPPTFGQGTKVEIERTVAAPSVFIFPPSDEQLKSGTASVVCLLNNFYPREAKVQWKVDNALQSGNSQESVTEQDSKDSTYSLSSTLTLSKADYEKHKVYACEVTHQGLSSPVTKSFNRGEC | – | 120 % of control |
| GpH7-B3 variant L235_15Y/GpL16-k0 (antibody, human IgG1, kappa, also called Ho Ab L235_15Y) heavy: not shown light: DIVMTQSPLSLPVTPGEPASISCQASESLVHSNRNTYLHWYLQKPGQSPQLLIYKVSNRFSGVPDRFSGSGSGTDFTLKISRVEAEDVGVYYCSQNTHVPPTFGQGTKVEIERTVAAPSVFIFPPSDEQLKSGTASVVCLLNNFYPREAKVQWKVDNALQSGNSQESVTEQDSKDSTYSLSSTLTLSKADYEKHKVYACEVTHQGLSSPVTKSFNRGEC | – | 107 % of control |
| GpH7-B3 variant S239_09D/GpL16-k0 (antibody, human IgG1, kappa, also called Ho Ab S239_09D) heavy: not shown light: DIVMTQSPLSLPVTPGEPASISCQASESLVHSNRNTYLHWYLQKPGQSPQLLIYKVSNRFSGVPDRFSGSGSGTDFTLKISRVEAEDVGVYYCSQNTHVPPTFGQGTKVEIERTVAAPSVFIFPPSDEQLKSGTASVVCLLNNFYPREAKVQWKVDNALQSGNSQESVTEQDSKDSTYSLSSTLTLSKADYEKHKVYACEVTHQGLSSPVTKSFNRGEC | – | 112 % of control |
| GpH7-B3 variant T335_16H/GpL16-k0 (antibody, human IgG1, kappa, also called Ho Ab T335_16H) heavy: not shown light: DIVMTQSPLSLPVTPGEPASISCQASESLVHSNRNTYLHWYLQKPGQSPQLLIYKVSNRFSGVPDRFSGSGSGTDFTLKISRVEAEDVGVYYCSQNTHVPPTFGQGTKVEIERTVAAPSVFIFPPSDEQLKSGTASVVCLLNNFYPREAKVQWKVDNALQSGNSQESVTEQDSKDSTYSLSSTLTLSKADYEKHKVYACEVTHQGLSSPVTKSFNRGEC | – | 100 % of control |
| GpH7-B3 variant T335_01G/GpL16-k0 (antibody, human IgG1, kappa, also called Ho Ab T335_01G) heavy: not shown light: DIVMTQSPLSLPVTPGEPASISCQASESLVHSNRNTYLHWYLQKPGQSPQLLIYKVSNRFSGVPDRFSGSGSGTDFTLKISRVEAEDVGVYYCSQNTHVPPTFGQGTKVEIERTVAAPSVFIFPPSDEQLKSGTASVVCLLNNFYPREAKVQWKVDNALQSGNSQESVTEQDSKDSTYSLSSTLTLSKADYEKHKVYACEVTHQGLSSPVTKSFNRGEC | – | 101 % of control |
| GpH7-B3 variant Y296_18N/GpL16-k0 (antibody, human IgG1, kappa, also called Ho Ab Y296_18N) heavy: not shown light: DIVMTQSPLSLPVTPGEPASISCQASESLVHSNRNTYLHWYLQKPGQSPQLLIYKVSNRFSGVPDRFSGSGSGTDFTLKISRVEAEDVGVYYCSQNTHVPPTFGQGTKVEIERTVAAPSVFIFPPSDEQLKSGTASVVCLLNNFYPREAKVQWKVDNALQSGNSQESVTEQDSKDSTYSLSSTLTLSKADYEKHKVYACEVTHQGLSSPVTKSFNRGEC | – | 100 % of control |
| GpH7-B3 variant T335_13S/GpL16-k0 (antibody, human IgG1, kappa, also called Ho Ab T335_13S) heavy: not shown light: DIVMTQSPLSLPVTPGEPASISCQASESLVHSNRNTYLHWYLQKPGQSPQLLIYKVSNRFSGVPDRFSGSGSGTDFTLKISRVEAEDVGVYYCSQNTHVPPTFGQGTKVEIERTVAAPSVFIFPPSDEQLKSGTASVVCLLNNFYPREAKVQWKVDNALQSGNSQESVTEQDSKDSTYSLSSTLTLSKADYEKHKVYACEVTHQGLSSPVTKSFNRGEC | – | 101 % of control |
| GpH7-B3 variant S337_09D/GpL16-k0 (antibody, human IgG1, kappa, also called Ho Ab S337_09D) heavy: not shown light: DIVMTQSPLSLPVTPGEPASISCQASESLVHSNRNTYLHWYLQKPGQSPQLLIYKVSNRFSGVPDRFSGSGSGTDFTLKISRVEAEDVGVYYCSQNTHVPPTFGQGTKVEIERTVAAPSVFIFPPSDEQLKSGTASVVCLLNNFYPREAKVQWKVDNALQSGNSQESVTEQDSKDSTYSLSSTLTLSKADYEKHKVYACEVTHQGLSSPVTKSFNRGEC | – | 107 % of control |
| GpH7-B3 variant L328_20W/GpL16-k0 (antibody, human IgG1, kappa, also called Ho Ab L328_20W) heavy: not shown light: DIVMTQSPLSLPVTPGEPASISCQASESLVHSNRNTYLHWYLQKPGQSPQLLIYKVSNRFSGVPDRFSGSGSGTDFTLKISRVEAEDVGVYYCSQNTHVPPTFGQGTKVEIERTVAAPSVFIFPPSDEQLKSGTASVVCLLNNFYPREAKVQWKVDNALQSGNSQESVTEQDSKDSTYSLSSTLTLSKADYEKHKVYACEVTHQGLSSPVTKSFNRGEC | – | 112 % of control |
| GpH7-B3 variant T335_15Y/GpL16-k0 (antibody, human IgG1, kappa, also called Ho Ab T335_15Y) heavy: not shown light: DIVMTQSPLSLPVTPGEPASISCQASESLVHSNRNTYLHWYLQKPGQSPQLLIYKVSNRFSGVPDRFSGSGSGTDFTLKISRVEAEDVGVYYCSQNTHVPPTFGQGTKVEIERTVAAPSVFIFPPSDEQLKSGTASVVCLLNNFYPREAKVQWKVDNALQSGNSQESVTEQDSKDSTYSLSSTLTLSKADYEKHKVYACEVTHQGLSSPVTKSFNRGEC | – | 102 % of control |
| GpH7-B3 variant L328_06M/GpL16-k0 (antibody, human IgG1, kappa, also called Ho Ab L328_06M) heavy: not shown light: DIVMTQSPLSLPVTPGEPASISCQASESLVHSNRNTYLHWYLQKPGQSPQLLIYKVSNRFSGVPDRFSGSGSGTDFTLKISRVEAEDVGVYYCSQNTHVPPTFGQGTKVEIERTVAAPSVFIFPPSDEQLKSGTASVVCLLNNFYPREAKVQWKVDNALQSGNSQESVTEQDSKDSTYSLSSTLTLSKADYEKHKVYACEVTHQGLSSPVTKSFNRGEC | – | 100 % of control |
| GpH7-B3 variant V266_07I/GpL16-k0 (antibody, human IgG1, kappa, also called Ho Ab V266_07I) heavy: not shown light: DIVMTQSPLSLPVTPGEPASISCQASESLVHSNRNTYLHWYLQKPGQSPQLLIYKVSNRFSGVPDRFSGSGSGTDFTLKISRVEAEDVGVYYCSQNTHVPPTFGQGTKVEIERTVAAPSVFIFPPSDEQLKSGTASVVCLLNNFYPREAKVQWKVDNALQSGNSQESVTEQDSKDSTYSLSSTLTLSKADYEKHKVYACEVTHQGLSSPVTKSFNRGEC | – | 104 % of control |

From patent US20150344570A1 (published 2015)
